Experimental findings from US20240317865A1, “ANTIBODIES AGAINST INTEGRIN ALPHA 11 BETA 1” (MOMENTA PHARMACEUTICALS, INC., priority 2020, published 2024) are described below.

Entries after “also recorded” stand apart in the source; their conditions may differ.

For test [1], the system named is CHO-K1 human α11-mediated rat tail type I collagen gel contraction. The test is described as follows: Collagen gel contraction assay. Type of test: cell-based. Conditions: compared to untreated condition. How it is done:
24-well plates were blocked with 2% BSA in PBS overnight at 37° C. The following day, the plates were washed 3 times with PBS before being used in the assay. Human CHO cell lines expressing α11 were harvested and resuspended at 1.25×10^6 in ExpiCHO Expression Medium (Gibco™ Cat #A2910002). The collagen gel solution was prepared by diluting 3 mg/mL stock collagen type I (Gibco™ Collagen I Rat Protein, Tail Cat #A1048301) to 1 mg/mL in the media containing the CHO cells. Sodium hydroxide was added to the solution to neutralize the pH and 400 μL of the collagen solution was added to each well of the 24-well plates. For the wells where the antibodies were included in the collagen gel solution, CHO cells were prepared at 2.5×10^6 and the antibodies were prepared at 2× final concentration in ExpiCHO media. The cells and antibodies were then combined 1:1 before the addition of the stock collagen type 1. The gels were allowed to polymerize for 60 minutes at 37° C. Antibodies were added to the ExpiCHO media, which was then layered on top of the polymerized gel (400 μL/well). The gels were incubated for 6 days at 37° C. before gel contraction was quantified. Images of each well were analyzed using Image J and gel contraction was determined as a percentage of the initial gel area.
Selected exemplary antibodies were tested for the ability to inhibit cell-mediated 3D gel contraction because this ability is directly linked to the functionality of the exemplary antibodies.

For another test, the target named is T1, α11β1 I Domain (Homo sapiens, UniProt Q9UKX5).
T1 sequence (Q9UKX5 164-345 limits assumed): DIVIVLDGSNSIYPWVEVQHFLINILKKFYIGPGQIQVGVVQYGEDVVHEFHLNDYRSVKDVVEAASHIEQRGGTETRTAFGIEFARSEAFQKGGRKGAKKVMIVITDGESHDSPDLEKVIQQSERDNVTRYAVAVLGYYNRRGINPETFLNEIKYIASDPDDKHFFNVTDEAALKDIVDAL
The test is described as follows: ELISA binding to in-house generated α11β1 I domain. On the set-up: An in-house generated I domain of α11β1 was used; made in house. Conditions: in words. How it is done:
0.25 μg/mL of target antigen (recombinant human or mouse α11β1) was plated in a 96-well plate over night at 4° C. Plates were washed (PBS with 0.1% Tween-20), blocked (PBS with 2% BSA and 0.05% Tween-20) for 1 hour at room temperature and incubated with a range of antibody concentrations for 1 hour at room temperature. Subsequently, plates were washed and incubated with biotinylated anti-rabbit/mouse/human IgG in a 1:1000 dilution buffer and incubated for 1 hour at room temperature. After washing the plates, Streptavidin HRP was added at 1:200 in dilution buffer and incubated for 1 hour at room temperature. Ultra TMB ELISA substrate solution was added and the plates incubated for 5 minutes on a plate shaker. The reaction was stopped by adding stop solution to each well and plates were read at 450 nm.
Data was also collected to determine whether antibodies of interest bind to the I domain of α11β1. An in-house generated I domain of α11β1 was used. […] Mouse antibodies 10-F23, 10-L15, 7-O8, 6-A12, 9-G05 and 9-E16 and rabbit antibodies 7-H12 and 2-D3 were also tested for binding against the in-house generated α11β1 I domain. FIGS. 3A and 3B show graphs illustrating binding data from exemplary mAbs.

Test [2] concerns the target T2, adhesion of CHO-K1 cells expressing human α11 to rat tail type I collagen (Homo sapiens, UniProt Q9UKX5).
T2 construct: expressed in transfected cells; host or cells: CHO-K1
T2 sequence (Q9UKX5 23-1188): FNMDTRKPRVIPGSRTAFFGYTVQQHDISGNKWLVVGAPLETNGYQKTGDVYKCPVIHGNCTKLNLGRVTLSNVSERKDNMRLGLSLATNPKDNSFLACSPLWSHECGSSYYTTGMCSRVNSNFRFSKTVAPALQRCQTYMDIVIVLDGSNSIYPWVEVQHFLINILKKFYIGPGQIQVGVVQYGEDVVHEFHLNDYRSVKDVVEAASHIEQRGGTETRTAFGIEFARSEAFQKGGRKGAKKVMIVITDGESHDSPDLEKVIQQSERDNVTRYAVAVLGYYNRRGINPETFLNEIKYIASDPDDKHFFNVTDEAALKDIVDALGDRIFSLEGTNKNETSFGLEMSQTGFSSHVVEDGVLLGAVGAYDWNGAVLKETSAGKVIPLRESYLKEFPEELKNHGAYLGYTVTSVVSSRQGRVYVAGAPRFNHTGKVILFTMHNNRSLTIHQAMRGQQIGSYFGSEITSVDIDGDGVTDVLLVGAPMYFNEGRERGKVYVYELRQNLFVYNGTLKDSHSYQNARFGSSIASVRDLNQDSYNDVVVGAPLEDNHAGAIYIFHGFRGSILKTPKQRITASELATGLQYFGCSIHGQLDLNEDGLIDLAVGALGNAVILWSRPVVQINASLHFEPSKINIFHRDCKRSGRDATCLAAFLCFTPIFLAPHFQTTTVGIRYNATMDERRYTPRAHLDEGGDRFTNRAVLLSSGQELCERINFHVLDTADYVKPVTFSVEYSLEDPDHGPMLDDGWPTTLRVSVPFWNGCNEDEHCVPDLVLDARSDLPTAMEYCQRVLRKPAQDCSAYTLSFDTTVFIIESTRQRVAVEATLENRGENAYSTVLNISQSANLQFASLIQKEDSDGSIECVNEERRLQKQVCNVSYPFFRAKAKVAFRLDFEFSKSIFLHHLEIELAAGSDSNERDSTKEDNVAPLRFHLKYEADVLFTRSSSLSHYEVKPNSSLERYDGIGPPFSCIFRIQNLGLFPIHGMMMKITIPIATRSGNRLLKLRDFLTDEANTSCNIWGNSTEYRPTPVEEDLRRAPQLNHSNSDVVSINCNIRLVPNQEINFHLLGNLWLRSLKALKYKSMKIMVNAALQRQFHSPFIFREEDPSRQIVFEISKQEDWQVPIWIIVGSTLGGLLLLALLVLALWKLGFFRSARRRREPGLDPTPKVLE
The test is described as follows: Cell adhesion inhibition (CHO-K1 hu α11 cells to type I collagen, xCelligence). Conditions: in words. Type of test: cell-based. How it is done: 0.6×10^6 cells/mL were incubated with each antibody at a range of concentrations for 20 minutes at 37° C. E-Plate VIEW 96 PET plate coated with 100 ng/ml type I collagen or PBS overnight at room temperature was blocked in 3% BSA for 1 house at room temperature. After washing the plate with PBS, cell and antibody mixture was added to the wells and the plate was places into an xCelligence machine. Cell adhesion was recorded over 6 hours. The time point of maximum cell adhesion was used for comparison relative to control.
A CHO-K1 hu α11 cell line was used to assess the ability of mAbs to block α11β1-mediated binding to type I collagen. […] In the “Untreated” condition, cells were plated on type I collagen but no antibody was added and in the “Uncoated” condition, cells were seeded onto BSA-coated wells containing no type I collagen. Statistics were performed using one-way ANOVA followed by Dunnett's multiple comparisons test. […] Therefore, it is possible that these mAbs bind on an α11β1 domain that keeps the integrin in a low or intermediate affinity state. […] Nine human mAbs were also tested for their ability to inhibit the binding of human CHO-α11 cells to type I collagen.

B1: 1994_01_D12: fully human anti-α11β1 mAb from phage display; HCDR3 SEQ ID NO: 267, LCDR3 SEQ ID NO: 334 (antibody, V domains shown)
VH: QVQLVQSGAEVKKPGSSVKVSCKASGYTFTSYGISWVRQAPGQGLEWMGWISAYNGNTNYAQKLQGRVTMTTNTSTSTAYMELRSLRSDDTAVYYCARVTGITGTTIDPWGQGTLVTVSS
VL: DIQMTQSPSSLSASVGDRVTITCRASQSISSYLNWYRQKPGKAPKLLIYAASSLQSGVPSRFSGSGSGTDFTLTISSLQPEDAATYYCQQYDSQSGTFGQGTKLEIK
Regarding B1, the “Inhibition of CHO-hu α11-mediated collagen gel contraction” value in test [1] was “inhibited”.

B2: 24E4G6: rat anti-α11β1 mAb; VH SEQ ID NO: 147, VL SEQ ID NO: 148 (antibody, V domains shown)
VH: MELELSLIFIFSLLKDVQCEVQLVESGGSLVQPGGSLKLSCVASGYTFSNYWMDWVRQSPGKSLEWIGEINTDGRRTNYAPSIKDRFTISRDNAKSTLYLQMSNVKSDDTAIYYCTILRVYPHYFDYWGQGVMVTVSS
VL: MMSPAQFLFLLMLWIQEARGDVVMTQTPPSLSVAIGQSVSISCKSSQSLVYSDGETYLHWFLQSPGRSPKRLIYHVSNLGSGVPDRFSGTGSLTDFTLRISRVEAEDLGVYYCAQTTHFPPTFGAGTKLELK
In the case of B2, the “Binding to the I domain of α11β1” value with α11β1 I Domain is “did not bind to the I-domain”.

B3: 8H8E9: rat anti-α11β1 mAb; VH SEQ ID NO: 149, VL SEQ ID NO: 150 (antibody, V domains shown)
VH: MAVLVLLLCLVTFPSCALSQVQLKESGPGLVQPSQTLSLTCTVSGFSLTSNSVSWVRQAPGKGLEWMGAIWSGGSTDYNSALKSRLSISRDTSKSQVFLKMNSLQTEDTAIYFCTRSHWEPFDYWGQGVMVTVSS
VL: MESQTQALISLLLWVYGTCGDIVMTQSPFSLAVSEGEMVTINCKSSQGLLSSGNQKNYLAWYQQRPGQSPKLLIYYASTRQSGVPDRFIGGGSGTDFTLTISDVQAEDLADYYCLQHYSYPPTFGSGTKLEIK
Regarding B3, the “Binding to the I domain of α11β1” value in the test with α11β1 I Domain is “medium”.

B4: 6E5C11: rat anti-α11β1 mAb; VH SEQ ID NO: 151, VL SEQ ID NO: 152 (antibody, V domains shown)
VH: MAVLVLLLCLVTFPSCALSQVQLRESGPGLVQPSQTLSLTCTVSGFSLTSNSVTWVRQPPGKGLEWMGAIWSDGSTDYNSTLKSRLSISRDTSKSQVFLKMSSLQTEDTAIYFCTRSHWEPFDYWGQGVMVTVSS
VL: MESQTQALISLLLWVYGTCGDIVMTQSPLSLAVSEGETVTMNCKSSQSLFSSGNQKNYLAWYQQKPGQSPKLLIYYASTRQSGVPDRFIGSGSGTDFTLTISDVQTEDLADYYCLQHYNYPPTFGSGTKLEIK
As for B4, the “Binding to the I domain of α11β1” value with α11β1 I Domain is listed as “low”.

B5: 8-I14: mouse anti-α11β1 mAb; VH SEQ ID NO: 109, VL SEQ ID NO: 110 (antibody, V domains shown)
VH: EVQLQQSGPELVKPGASVKKSCKASGYTFTDYYMHWVKQKPGQGLEWIGKIYPGSGNTHYNEKFKGKATLTADKSSSTAYMQLSSLTSEDSAVYFCATNYYGYRAMNYWGQGSSVTVSS
VL: DIHLTQSPSSLSASLGERISLTCRASQDIYISLNWFQQKPDGTIKLLIYGTSSLDSGVPKRFSGSRSGSDYSLTISSLESEDFADYYCLQYASSPYTFGGGTKLEIK
In the case of B5, the “Inhibition of CHO-hu α11-mediated collagen gel contraction” value in test [1] is “inhibited”.

B6: 9-E16: mouse anti-α11β1 mAb; VH SEQ ID NO: 111, VL SEQ ID NO: 112 (antibody, V domains shown)
VH: EVQLQQSGPELVKPGASVKISCKASGYTFTDYYMHWVKQKPGQGLEWIGEIYPGSGNPYYNEKFKGKATLTADKSSSSAYMQLSSLTSEDSAVYFCARTSYGRVGTGFAYWGQGTLVTVSA
VL: NFVMTQTPLSLPVSLGDQASISCRSSQSLLHSNGNTYLHWYLQKPGQSPKLLIYKVSNRFSGVPDRFSGSGSGTDFTLKINRVETEDLGIYFCSQSSHVPTFGAGTKLELK
For B6, the “Inhibition of CHO-hu α11-mediated collagen gel contraction” value in test [1] was “inhibited”. For the same molecule, the “Binding to the I domain of α11β1” value with α11β1 I Domain was “I-domain binders; also recorded: bound the I domain”. Moreover, the “Inhibition of cell adhesion to type I collagen” value in test [2] was “decrease cell adhesion to collagen”.
